“Also recorded” adds a separate entry of the source. Where no end group is shown, it is not given here. [ ]: non-standard residue; d: D form.
Legend:
DPPIV = molecular target: T1, DPPIV (Mus musculus, UniProt P28843); assay: Plasma DPPIV activity assay with mouse blood; type: biochemical; conditions: peptide 0.82 mM in mouse blood, 2 h at 37° C.; relative to saline control set to 100%
T1 construct: The plasma was transferred to a 96-well assay plate for the DPPIV assay; from tissue; host or cells: pooled heparinized whole blood of ICR mice; plasma isolated after incubation
T1 sequence (P28843 37-760 limits assumed): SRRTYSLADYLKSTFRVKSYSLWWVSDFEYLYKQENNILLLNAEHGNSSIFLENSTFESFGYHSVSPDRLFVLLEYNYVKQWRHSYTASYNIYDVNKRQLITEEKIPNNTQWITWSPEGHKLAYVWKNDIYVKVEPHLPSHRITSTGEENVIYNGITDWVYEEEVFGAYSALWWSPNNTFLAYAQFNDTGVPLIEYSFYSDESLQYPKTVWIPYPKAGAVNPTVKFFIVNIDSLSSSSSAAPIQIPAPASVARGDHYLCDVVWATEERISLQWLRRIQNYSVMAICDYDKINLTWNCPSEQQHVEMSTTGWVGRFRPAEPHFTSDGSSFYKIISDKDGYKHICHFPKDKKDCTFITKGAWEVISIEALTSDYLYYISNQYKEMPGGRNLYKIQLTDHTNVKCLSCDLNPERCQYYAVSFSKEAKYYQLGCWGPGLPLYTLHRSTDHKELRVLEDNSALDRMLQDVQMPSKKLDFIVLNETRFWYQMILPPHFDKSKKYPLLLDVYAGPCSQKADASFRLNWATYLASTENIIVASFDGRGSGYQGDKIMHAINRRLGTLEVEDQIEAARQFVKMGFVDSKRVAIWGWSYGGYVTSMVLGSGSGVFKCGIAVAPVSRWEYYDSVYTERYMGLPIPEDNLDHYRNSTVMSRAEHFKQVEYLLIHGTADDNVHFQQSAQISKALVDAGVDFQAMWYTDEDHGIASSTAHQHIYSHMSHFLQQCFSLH
Description: Mouse blood was obtained by cardiac puncture from ICR mice and collected in heparinized blood collection tubes. Blood from several mice was pooled and aliquoted into […]. The peptide was dissolved in acetate buffered saline, pH 5.5, to a concentration of 9 mM. Of this stock solution 30 μL were added to 300 μL of blood and mixed by resuspension (concentration in blood 0.82 mM). For the control, 30 μL of blank acetate buffered saline was added to 300 μL of blood. Each peptide group was prepared in triplicate, whereas the control was prepared in six replicates. The samples were incubated at 37° C. in closed microtubes for two hours. After incubation the plasma was isolated from the samples by centrifugation at 4000 rcf. The plasma was transferred to a 96-well assay plate for the DPPIV assay. The assay was started by adding 5 μL of the DPPIV substrate gly-pro-p-nitroanilide (16 mM in de-ionized water) to 95 μl of plasma (concentration in plasma 0.8 mM) and the increase in UV absorbance (405 nm) was monitored over a 20 min time period. The rate of the production of p-nitroaniline by enzymatic cleavage of gly-pro-p-nitroanilide was taken as the activity of DPPIV (Durinx C et al., (2001) “Reference values for plasma dipeptidyl-peptidase IV activity and their association with other laboratory parameters”. Clin Chem Lab Med. 39(2):155-9.)
The effect of the peptides on the activity of DPPIV was observed. Results are presented as normalized, averaged % activity relative to saline control (set to 100%). Anything less than 100% activity represents a reduction in DPPIV activity.
In one aspect of the invention, a reduction by of DPPIV activity by about, or in one embodiment, at least, 25% (i.e. to about 75%+/−5%) was deemed to be active. A person skilled in the art would appreciate that the desired level of activity may vary depending on the use of the peptides.

S. aureus 25923 [1] = assay: In vivo protection, mice infected IP with S. aureus, peptide after infection; conditions: peptide IP 4 hours after infection, 9-24 mg/kg depending on peptide, 24 hours post-infection, vs control
Description: Mice were infected with S. aureus 25923 via intraperitoneal (IP) injection. Four hours later, the peptide of SEQ ID NOs:1, 4, 5, 6, 45, and 47 were administered at 12 mg/kg and 24 mg/kg for SEQ. ID. NO. 1 (FIGS. 2A and 2B), 9.6 mg/kg for SEQ. ID. NO. 5 (FIG. 2C), 13 mg/kg for SEQ. ID. NO. 47 (FIG. 2D), 12 mg/kg for SEQ. ID. NO. 4 (FIG. 2E), 9 mg/kg for SEQ. ID. NO. 6 (FIG. 2F), and 13 mg/kg for SEQ. ID. NO. 45 (FIG. 2G), via IP injection. Twenty-four hours post-infection, surviving animals were sacrificed, and intraperitoneal lavage fluid was plated to determine residual bacterial counts (# colony forming units per ml (CFU/ml)) in the presence and absence of peptide treatment.
Dead animals were assigned the highest bacterial count of any animal in the study.

S. aureus 25923 [2] = assay: Non-antimicrobial activity, WST-1 colorimetric bacterial viability assay; type: cell-based; conditions: peptide 200 μM, 2 hours growth, compared with erythromycin 120 μg/ml
Description: Bacteria (S. aureus 25923) were seeded into wells containing peptide (200 μM), vehicle (Tris), or antibiotic (erythromycin; 120 μg/ml). The bacteria were allowed to grow for 2 hours. Thereafter, bacterial viability was determined utilizing a WST-1 colorimetric viability assay (catalogue number 1 644 807; Roche Diagnostics). DMEM and DMEM+WST-1 were included as background controls.

Row | Substance | % DPPIV Activity (Saline) (DPPIV) | protection (residual bacterial counts CFU/ml in intraperitoneal lavage fluid) (S. aureus 25923 [1]) | antimicrobial activity (bacterial viability) (S. aureus 25923 [2])
1 | 23 (RIVPS-NH2) [compound 23] | 62% | – | –
2 | 78 (RSVPA-NH2) [compound 78] | 75% | – | –
3 | 37 (RLVPA-NH2) [compound 37] | 39% | – | –
4 | 4 (SRIVP; IMMUNOLOGICAL PEPTIDE) [compound 4] | 64% | clearly demonstrated protection | –
5 | 64 (RIVPPA-NH2) [compound 64] | 74% | – | –
6 | 15 (RPVPA-NH2) [compound 15] | 27% | – | –
7 | 38 (HIVPA-NH2) [compound 38] | 47% | – | –
8 | 41 (IRVPA-NH2) [compound 41] | 49% | – | –
9 | 6 (KIVPA; IMMUNOLOGICAL PEPTIDE) [compound 6] | 64% | clearly demonstrated protection | –
10 | 87 (Arg-Arg-Pro-NH2) [compound 87] | 72% | – | –
11 | 46 (RVPSLL-NH2) [compound 46] | 70% | – | –
12 | 76 (RIVPE-NH2) [compound 76] | 69% | – | –
13 | 12 (RRIVPA; IMMUNOLOGICAL PEPTIDE) [compound 12] | 61% | – | –
14 | 16 (RIPPA-NH2) [compound 16] | 66% | – | –
15 | 54 (RIVPAIPVSLL-NH2) [compound 54] | 4% | – | –
16 | 17 (RIVPP-NH2) [compound 17] | 82% | – | –
17 | 62 ([code r][code r]VP-NH2) [compound 62] | 51% | – | –

Row | Substance | % DPPIV Activity (Saline) (DPPIV) | protection (residual bacterial counts CFU/ml in intraperitoneal lavage fluid) (S. aureus 25923 [1]) | antimicrobial activity (bacterial viability) (S. aureus 25923 [2])
18 | 40 (ARVPA-NH2) [compound 40] | 68% | – | –
19 | 77 (RIVPH-NH2) [compound 77] | 53% | – | –
20 | 53 (GLKHPS-NH2) [compound 53] | 68% | – | –
21 | 83 (Arg-Ile-Pro-NH2) [compound 83] | 47% | – | –
22 | 19 (GGIVPA-NH2) [compound 19] | 70% | – | –
23 | 43 (SIVPA-NH2) [compound 43] | 80% | – | –
24 | 29 (AVPIR-NH2) [compound 29] | 0% | – | –
25 | 82 (KPRP-NH2) [compound 82] | 52% | – | –
26 | 61 (RIVPAC-NH2) [compound 61] | 52% | – | –
27 | 28 (RIIPA-NH2) [compound 28] | 20% | – | –
28 | 71 (RIWPA-NH2) [compound 71] | 78% | – | –
29 | 50 (RVPS-NH2) [compound 50] | 59% | – | –
30 | 9 (RIPA; IMMUNOLOGICAL PEPTIDE) [compound 9] | 51% | – | –
31 | 47 (KPRAVP; IMMUNOLOGICAL PEPTIDE) [compound 47] | 52% | clearly demonstrated protection | lack of activity; also recorded: lacked antimicrobial activity
32 | 75 (RIEPA; IMMUNOLOGICAL PEPTIDE) [compound 75] | 79% | – | –
33 | 89 (Lys-His-Pro-NH2) [compound 89] | 72% | – | –

Source: patent US8791061B2, “Peptides for treating and preventing immune-related disorders, including treating and preventing infection by modulating innate immunity” (Soligenix, Inc., priority 2005, dated 2014)
